Measured values: the supplement of paper PMC7125110
± gives the standard error. Variants at the floor of the assay were thinned out.

B1: glmS ribozyme (parent)
chain: AUAAAAGCGCCAGAACUACAGAAAUGUAGUUGACGAGGAGGAGGUUUAUCGAAUUUUCGGCGGAUGCCUCCAAA

Variants of: B1
Test: self-cleavage kobs at 2500 uM GlcN6P; higher = faster cleavage; RNA array
Conditions: with glucosamine-6-phosphate
Summary of the method: (§1)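 E. coli RNA polymerase transcribed barcoded ribozyme variants in situ on sequenced MiSeq chips, which were tracked via a hybridised Cy3 probe at 37 °C. Tiles were imaged over ~14 h after glucosamine-6-phosphate (40 μM to 10 mM) in HEPES/KCl/Mg(OAc)2 buffer was flowed in. Normalised per-tile medians were fit to one- or two-exponential decays for kobs, and kcat and KM came from weighted Michaelis–Menten fits.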

Point of comparison: A6U A52G U69C, “self-cleavage kobs at 2500 uM GlcN6P” value 5.25e-05 ± 2.2e-05 s⁻¹. Against it:
- A6G A33G A42U G60U — lower, < 1e-05 s⁻¹
- A6C A36U G37C A39U — lower, < 1e-05 s⁻¹
- U46A U47C C70A — 3.9-fold higher, 0.000206 ± 3.7e-05 s⁻¹
- A42U U69C C70A — 5.9-fold higher, 0.000308 ± 9.7e-05 s⁻¹
- G7A C8A U56G — lower, < 1e-05 s⁻¹
- G7U G9A C67A — lower, < 1e-05 s⁻¹
- U47A U56A C70U — 30-fold higher, 0.00157 ± 0.0006 s⁻¹
- A6U A14U U31C A42G A52C A64C — lower, < 1e-05 s⁻¹
- A6G A52G G62C — lower, < 1e-05 s⁻¹
- G7C G35C A48C C58U — lower, < 1e-05 s⁻¹
- G43U A52C G66C C68G — lower, < 1e-05 s⁻¹
- A6U G7A G60U G62U U65G — lower, < 1e-05 s⁻¹
- U47G U57G C61G C67U — 4.8-fold higher, 0.000254 ± 6.6e-05 s⁻¹
- G7U A53G U57A — lower, < 1e-05 s⁻¹
- A6C A15U G35A G40U — lower, < 1e-05 s⁻¹
- A6U U47A A53G G59U — lower, < 1e-05 s⁻¹
- U46C G60U — lower, < 1e-05 s⁻¹
- G43U G62C C67A — lower, < 1e-05 s⁻¹
- G7A C8G G63U — lower, < 1e-05 s⁻¹
- C50U U56G C70G — 4.8-fold higher, 0.000251 ± 5.8e-05 s⁻¹
- U46G A53G G66U — 2.8-fold higher, 0.000148 ± 5.2e-05 s⁻¹
- A6G A12C U56G — the same, 5.25e-05 ± 2.1e-05 s⁻¹
- C50G U57G G66U C70G — 2.6-fold higher, 0.000139 ± 4.9e-05 s⁻¹
- A6U G32U U57G — lower, < 1e-05 s⁻¹
- G7C C11A G60C — lower, < 1e-05 s⁻¹
- A6G C16G U54C C61A — lower, < 1e-05 s⁻¹
- A6G C61A C71U — lower, < 1e-05 s⁻¹
- G44A A48U U56G — lower, < 1e-05 s⁻¹
- U45G G66C — 18-fold higher, 0.000927 ± 0.00042 s⁻¹
- C50G G60C C70A — within error, 5.41e-05 ± 2.7e-05 s⁻¹
- G7C A36G G37C U56A G66A — lower, < 1e-05 s⁻¹
- A6U G44A U56A — lower, < 1e-05 s⁻¹
- A6G A12G A33U A36C — lower, < 1e-05 s⁻¹
- G44C A52G U54G — lower, < 1e-05 s⁻¹
- A6G G40A G41C — lower, < 1e-05 s⁻¹
- A6G G40U A52G A53U — lower, < 1e-05 s⁻¹
- A6G C11G A33U G59C — lower, < 1e-05 s⁻¹
- A6U U47A U57C — lower, < 1e-05 s⁻¹
- A6C A15G U30C — within error, 2.76e-05 ± 1.3e-05 s⁻¹
- G7C C10A C16G C61A — lower, < 1e-05 s⁻¹
- G7A G13A U30C C34U C70U — lower, < 1e-05 s⁻¹
- A6G A14U U54A — 2.2-fold higher, 0.000117 ± 2.9e-05 s⁻¹
- C61G C70G C71G — within error, 8.65e-05 ± 2.4e-05 s⁻¹
- A52G C61G U69A — the same, 5.25e-05 ± 2.2e-05 s⁻¹
- A6U C8U A52U C67U C71U — lower, < 1e-05 s⁻¹
- A6C A48G A52G — lower, < 1e-05 s⁻¹
- U55G C67A C68G — within error, 7.14e-05 ± 1.6e-05 s⁻¹
- U2C A53C — 140-fold higher, 0.00726 ± 0.0019 s⁻¹
- A53U U55C U65A — 18-fold higher, 0.000947 ± 0.00018 s⁻¹
- A6C A12G A15G — lower, < 1e-05 s⁻¹
- A6C G38A G62U — lower, < 1e-05 s⁻¹
- A6U C8G G44C A53G — lower, < 1e-05 s⁻¹
- G7A U30A G60C — lower, < 1e-05 s⁻¹

Variants of: B1
Test: self-cleavage kobs at 640 uM GlcN6P; higher = faster cleavage; RNA array
Conditions: with glucosamine-6-phosphate
Summary of the method: as §1

Point of comparison: U47G G59A C67G, “self-cleavage kobs at 640 uM GlcN6P” value 0.000579 ± 0.00015 s⁻¹. Against it:
- G60U G66C C70U — lower, < 1e-05 s⁻¹
- U46A U47C C70A — 6.4-fold lower, 9.01e-05 ± 2.2e-05 s⁻¹
- A42U U69C C70A — within error, 0.0004 ± 0.00011 s⁻¹
- U46G C50U C68G — 9.9-fold lower, 5.83e-05 ± 2.6e-05 s⁻¹
- U47G C70U C71G — 4.9-fold lower, 0.000118 ± 2.3e-05 s⁻¹
- U47A U56A C70U — within error, 0.00117 ± 0.00047 s⁻¹
- G43U A52C G66C C68G — lower, < 1e-05 s⁻¹
- U45A U49C — lower, < 1e-05 s⁻¹
- U47G U57G C61G C67U — 4.4-fold lower, 0.000132 ± 5.3e-05 s⁻¹
- C61G A64G C71G — 4.1-fold lower, 0.000141 ± 3.7e-05 s⁻¹
- C50G A52U — lower, < 1e-05 s⁻¹
- U46C G60U — lower, < 1e-05 s⁻¹
- G43U G62C C67A — lower, < 1e-05 s⁻¹
- C50U U56G C70G — 2.1-fold lower, 0.000278 ± 8e-05 s⁻¹
- U46G A53G G66U — 7.3-fold lower, 7.95e-05 ± 2e-05 s⁻¹
- U46A U49A U56C A64G — lower, < 1e-05 s⁻¹
- C50G U57G G66U C70G — within error, 0.000982 ± 0.0003 s⁻¹
- G43A A48G A53U G62C — lower, < 1e-05 s⁻¹
- G44A A48U U56G — lower, < 1e-05 s⁻¹
- U45G G66C — within error, 0.000414 ± 0.00017 s⁻¹
- C50G G60C C70A — 3.6-fold lower, 0.000161 ± 5.8e-05 s⁻¹
- U49G C50G G63C U69C — 3.2-fold lower, 0.00018 ± 4.2e-05 s⁻¹
- G62A G66C C67A — lower, < 1e-05 s⁻¹
- U45C A53U C67G — 6.7-fold higher, 0.00389 ± 0.0016 s⁻¹
- G44C A52G U54G — lower, < 1e-05 s⁻¹
- U54G G66C — within error, 0.000405 ± 6.3e-05 s⁻¹
- A42G U45C G59C G62U C68U — lower, < 1e-05 s⁻¹
- C50A A52C C61A C68U — within error, 0.000706 ± 0.00019 s⁻¹
- A48U U49A C68A — lower, < 1e-05 s⁻¹
- G44C C58G C61G — lower, < 1e-05 s⁻¹
- C61G C70G C71G — 2.6-fold lower, 0.000223 ± 8.8e-05 s⁻¹
- A52G C61G U69A — 5.3-fold lower, 0.000109 ± 4.4e-05 s⁻¹
- A52C U57G U69G — 7.2-fold lower, 8.06e-05 ± 2.8e-05 s⁻¹
- U55G C67A C68G — 6.7-fold lower, 8.64e-05 ± 2.7e-05 s⁻¹
- A53U U55C U65A — within error, 0.00055 ± 9.7e-05 s⁻¹
- U56C A64C — lower, < 1e-05 s⁻¹
- C50U C67A — 9.2-fold lower, 6.32e-05 ± 2.1e-05 s⁻¹

Variants of: B1
Test: self-cleavage kobs at 10000 uM GlcN6P; higher = faster cleavage; RNA array
Conditions: with glucosamine-6-phosphate
Summary of the method: as §1

Point of comparison: U54G G66C, “self-cleavage kobs at 10000 uM GlcN6P” value 0.00079 ± 0.00012 s⁻¹. Against it:
- U45A U49C — lower, < 1e-05 s⁻¹
- C50G A52U — lower, < 1e-05 s⁻¹
- G43U G62C C67A — lower, < 1e-05 s⁻¹
- A6G A12C U56G — 13-fold lower, 5.92e-05 ± 1.5e-05 s⁻¹
- U45G G66C — 4.7-fold higher, 0.00369 ± 0.00067 s⁻¹
- A53U U55C U65A — 1.7-fold higher, 0.00137 ± 0.00021 s⁻¹
- G7A U30A G60C — lower, < 1e-05 s⁻¹
